# Measured values published in publication PMC12188478, “Leveraging the Aminothiol-Specific Phosphorogenic Response of Iridium(III) Thioester Complexes for the Development of Intracellular Sensors and Cancer Phototherapeutics” (JACS Au, 2025).
# Peptide text beside a SMILES is read from it. * marks the point of attachment. X1 = Cc1cc[n+]2c(c1)-c1cc(C(=O)*)cc[n+]1[Ir-3]213([c]2c(sc4ccccc24)-c2c4ccccc4cc[n+]21)[c]1c(sc2ccccc12)-c1c2ccccc2cc[n+]13; Isonicotinoyl(2-(4-Me-2-Py)) = Cc1ccnc(-c2cc(C(=O)*)ccn2)c1
# Columns and labels:
# [1] = Reaction kinetics with L-Cys by HPLC; conditions: potassium phosphate buffer (50 mM, pH 7.0)/DMSO (3:2, v/v), TCEP 250 μM, 298 K
# Experimental: The reactivity of the thioester complexes 1a–4a toward N-Cys-containing biomolecules in potassium phosphate buffer (50 mM, pH 7.0)/DMSO (3:2, v/v) containing tris(2-carboxyethyl)-phosphine (TCEP) (250 μM) at 298 K (Scheme ) were investigated using L-Cys as a model. […] The formation of the conjugation products 1a-Cys–4a-Cys was validated by ESI-MS analyses (Figure S7). The isolated conjugate 1a-Cys was further characterized by 1D and 2D COSY ^1H NMR. The signals at δ = 8.18 and 1.89 ppm in the ^1H NMR spectra (Figures S8 and S9) correspond to the CONH and SH protons, respectively, confirming the successful labeling of L-Cys with the thioester complex via the NCL reaction involving transthioesterification and an S → N acyl shift. […]
# All reactions were performed on a 100-µL scale. The reaction kinetics of the thioester complexes 1a – 4a (20 µM) and ligand bpy-COSBn (100 µM) with L-Cys (25 µM for the complexes and 250 µM for the ligand) in potassium phosphate buffer (50 mM, pH 7.0)/DMSO (3:2, v/v) containing TCEP (250 µM) at 298 K was measured by reversed-phase high-performance liquid chromatography (RP-HPLC). The reactions at different time points were quenched by the addition of 900 µL of cold H2O/CH3CN (1:1, v/v) and then analyzed by RP-HPLC. […] The second-order rate constants (k2) were determined by fitting the data to the following equation: […]
# MDA-MB-231 cells [2] = assay: MTT (photo)cytotoxicity assay; format: cell-based; conditions: ratio IC50,dark/IC50,light, 24 h incubation
# Experimental: (§1) HeLa or HEK-293 cells were seeded in two 96-well flat-bottomed microplates (ca. 10,000 cells per well) in growth medium (100 μL) and incubated at 37 °C under a 5% CO2 atmosphere for 48 h. The growth medium was removed and replaced with medium/DMSO (100 μL, 99:1, v/v) containing complex 3a with concentrations ranging from 10^–5 to 10^–8 M. Wells containing untreated cells were used as blank control. The microplates were incubated at 37 °C in the dark under a 5% CO2 atmosphere for 2 h. After the treatment, the medium was removed and replenished with phenol red-free growth medium (100 μL). One of the microplates was irradiated at 450 nm (14.6 mW cm^–2) for 10 min with an LED cellular photocytotoxicity irradiator (PURI Materials, Shenzhen, China) and the other microplate was kept in the dark. Then the growth medium was replaced with fresh medium and the cells were further incubated at 37 °C under a 5% CO2 atmosphere for 24 h. The medium in each well was then replaced with fresh medium (90 μL) and 10 μL of MTT (5 mg mL^ –1) in PBS. The microplates were incubated at 37 °C under a 5% CO2 atmosphere for 4 h. The growth medium was then removed, and DMSO (100 μL) was added to each well. After 20 min, the absorbance of the solutions at 570 nm was measured with an Multiskan SkyHigh Microplate Spectrophotometer (Thermo Scientific). The IC50 values of the complex were determined from dose dependence of surviving cells after the treatment using the OriginPro 8.0 software package. For conjugates 3a-CASP, 3a-CYNT, and 3a-CMYI, the procedure was similar to that of complex 3a, except that MDA-MB-231, MCF-7, and HEK-293 cells were used and the conjugates were incubated for 24 h instead of 2 h before irradiation.
# HEK-293 cells [3] = assay: MTT (photo)cytotoxicity assay; format: cell-based; conditions: ratio IC50,dark/IC50,light, 24 h incubation
# Experimental: as §1
# MCF-7 cells [4] = assay: MTT (photo)cytotoxicity assay; format: cell-based; conditions: ratio IC50,dark/IC50,light, 24 h incubation
# Experimental: as §1
# [5] = 1O2 generation quantum yield; format: physicochemical; conditions: aerated CH3CN/H2O (4:1, v/v), 298 K, λex 450 nm
# Experimental: The ^1O2 generation efficiencies of all complexes were evaluated by monitoring the emission band of ^1O2 centered at ca. […]
# MDA-MB-231 cells [6] = assay: Cellular uptake mechanism studies (ICP-MS); format: cell-based; conditions: 10 μM
# Experimental: Conjugate 3a-CASP: MDA-MB-231 cells were seeded in a 35-mm tissue culture dish and incubated at 37 °C under a 5% CO2 atmosphere for 48 h. The culture medium was removed and replaced with conjugate 3a-CASP (10 μM) in medium/DMSO (99:1, v/v) at 37 °C under a 5% CO2 atmosphere for 4 or 16 h. In the low-temperature experiments, the cells were preincubated at 4 °C for 1 h prior to incubation with conjugate 3a-CASP (10 μM) in medium/DMSO (99:1, v/v) […]. In the chemical inhibition experiments, the cells were pretreated with EIPA (50 μM) for 1.5 h, Me-β-CD (5 mM) for 1 h, or chlorpromazine (30 μM) for 1 h at 37 °C under a 5% CO2 atmosphere. The cells were then washed with PBS (1 mL × 3) and incubated with conjugate 3a-CASP (10 μM) in medium/DMSO (99:1, v/v) at 37 °C under a 5% CO2 atmosphere for 16 h.
# (§2) Conjugate 3a-CYNT: MDA-MB-231 cells were seeded in a 35-mm tissue culture dish and incubated at 37 °C under a 5% CO2 atmosphere for 48 h. The culture medium was removed and replaced with conjugate 3a-CYNT (10 μM) in medium/DMSO (99:1, v/v) at 37 °C under a 5% CO2 atmosphere for 16 h. In the CAIX inhibition experiments, the cells were pretreated with acetazolamide (1 mM) at 37 °C under a 5% CO2 atmosphere for 6 h. The cells were then washed with PBS (1 mL × 3) and incubated with conjugate 3a-CYNT (10 μM) in medium/DMSO (99:1, v/v) at 37 °C under a 5% CO2 atmosphere for 16 h.
# as §2, with “Conjugate 3a-CMYI:” for “Conjugate 3a-CYNT:”, “conjugate 3a-CMYI” for “conjugate 3a-CYNT”, “the EGFR” for “the CAIX”, “with gefitinib (50 μM)” for “with acetazolamide (1 mM)”, “for 1” for “for 6”
# For all the experiments, after incubation with the conjugates, the medium was removed, and the cells were washed with PBS (1 mL × 3). The cells were then trypsinized and harvested with PBS (1 mL). The cell numbers were measured by a Logos Biosystems LUNA-II automated cell counter. The resultant solution was digested with 65% HNO3 (1 mL) at 70 °C for 2 h, allowed to cool to room temperature, and analyzed by a NexION 2000 ICP-MS (PerkinElmer SCIEX Instruments).
# MDA-MB-231 cells [7] = assay: Cellular uptake by ICP-MS; format: cell-based; conditions: 10 μM, 37 °C, 16 h
# Experimental: (§3) HeLa or HEK-293 cells were seeded in a 35-mm tissue culture dish and incubated at 37 °C under a 5% CO2 atmosphere for 48 h. The culture medium was removed and replaced with complexes 1a and 3a (10 μM) in medium/DMSO (99:1, v/v) at 37 °C under a 5% CO2 atmosphere for 2 h. After the treatment, the medium was removed, and the cells were washed with PBS (1 mL × 3). The cells were then trypsinized and harvested with PBS (1 mL). The cell numbers were obtained by a Logos Biosystems LUNA-II automated cell counter. The resultant solution was digested with 65% HNO3 (1 mL) at 70 °C for 2 h, allowed to cool to room temperature, and analyzed by a NexION 2000 ICP-MS (PerkinElmer SCIEX Instruments). For conjugates 3a-Cys, 3a-CASP, 3a-CYNT, and 3a-CMYI, the procedure was similar to that of complexes 1a and 3a, except that MDA-MB-231, MCF-7, and HEK-293 cells were used and the conjugates were incubated for 16 h instead of 2 h before the measurements.
# HEK-293 cells [8] = assay: Cellular uptake by ICP-MS; format: cell-based; conditions: 10 μM, 37 °C, 16 h
# Experimental: as §3
# MCF-7 cells [9] = assay: Cellular uptake by ICP-MS; format: cell-based; conditions: 10 μM, 37 °C, 16 h
# Experimental: as §3
Structure (SMILES),second-order rate constant (k2) for reaction with L-Cys [1] [M^–1 s^–1],PI (MDA-MB-231 cells [2]),PI (HEK-293 cells [3]),PI (MCF-7 cells [4]),1O2 generation quantum yield (ΦΔ) [5],"reduction of uptake after acetazolamide (CAIX inhibitor) pretreatment (MDA-MB-231 cells [6]; 16 h, acetazolamide 1 mM, 6 h)",Amount of iridium associated with an average cell (MDA-MB-231 cells [7]) [fmol],Amount of iridium associated with an average cell (HEK-293 cells [8]) [fmol],Amount of iridium associated with an average cell (MCF-7 cells [9]) [fmol],"decrease in intracellular iridium content at 4 °C (MDA-MB-231 cells [6]; 4 h, 4 °C versus 37 °C)","reduction of cellular uptake efficiency after chlorpromazine pretreatment (MDA-MB-231 cells [6]; 16 h, chlorpromazine 30 μM, 1 h)","reduction of uptake after gefitinib (EGFR inhibitor) pretreatment (MDA-MB-231 cells [6]; 16 h, gefitinib 50 μM, 1 h) [%]"
"Cc1ccnc(-c2cc(C(=O)SCc3ccccc3)ccn2)c1 [bpy-COSBn, S-benzyl 4’-methyl-2,2’-bipyridine-4-carbothioate]",11.3,,,,,,,,,,,
Cc1cc[n+]2c(c1)-c1cc(C(=O)N[C@@H](CS)C(=O)N[C@@H](Cc3ccc(O)cc3)C(=O)N[C@@H](CC(N)=O)C(=O)N[C@H](C(=O)N[C@@H](CC(N)=O)C(=O)N[C@@H](Cc3c[nH]cn3)C(=O)N[C@H](C(=O)N3CCC[C@H]3C(=O)N[C@@H](CC(C)C)C(=O)N[C@@H](CO)C(=O)N3CCC[C@H]3C(=O)N[C@@H](CCCCN)C(=O)N[C@@H](Cc3ccc(O)cc3)C(=O)O)C(C)C)[C@@H](C)O)cc[n+]1[Ir-3]213([c]2c(sc4ccccc24)-c2c4ccccc4cc[n+]21)[c]1c(sc2ccccc12)-c1c2ccccc2cc[n+]13 [Conjugate 3a-CYNT] (X1-CYNTNHVPLSPKY-OH; C-terminus assumed),,>139,>45,>38,0.28,ca. 20%,1.8,0.10,0.10,,,
Cc1ccnc(-c2cc(C(=O)N[C@@H](CS)C(=O)N[C@@H](C)C(=O)N[C@@H](CO)C(=O)N3CCC[C@H]3C(=O)N[C@@H](CO)C(=O)NCC(=O)N[C@@H](C)C(=O)N[C@@H](CC(C)C)C(=O)N[C@@H](CCCNC(=N)N)C(=O)N[C@@H](CO)C(=O)N[C@@H](CS)C(=O)O)ccn2)c1 [Conjugate 3a-CASP] ({Isonicotinoyl(2-(4-Me-2-Py))}-CASPSGALRSC-OH; C-terminus assumed),,>61,>18,>18,0.24,,1.6,0.074,0.10,ca. 70%,ca. 30%,
CC[C@H](C)[C@H](NC(=O)[C@H](Cc1ccc(O)cc1)NC(=O)[C@H](CCSC)NC(=O)[C@H](CS)NC(=O)c1cc[n+]2c(c1)-c1cc(C)cc[n+]1[Ir-3]213([c]2c(sc4ccccc24)-c2c4ccccc4cc[n+]21)[c]1c(sc2ccccc12)-c1c2ccccc2cc[n+]13)C(=O)N[C@@H](CCC(=O)O)C(=O)N[C@@H](C)C(=O)N[C@@H](CC(C)C)C(=O)N[C@@H](CC(=O)O)C(=O)N[C@@H](CCCCN)C(=O)N[C@@H](Cc1ccc(O)cc1)C(=O)N[C@@H](C)C(=O)N[C@@H](CS)C(=O)O [Conjugate 3a-CMYI] (X1-CMYIEALDKYAC-OH; C-terminus assumed),,>109,>28,>25,0.20,,0.21,0.033,0.074,,,~10
